# Results published in US20110123554A1 (BIOTEST, published 2011).
# Values joined by “and” are separate entries in the source; they are usually repeats but may differ in a detail not shown here. Identical values can stand only once.
# T1: CD138 on the cell surface (human, UniProt P18827 23-310)
# T1 sequence (looked up): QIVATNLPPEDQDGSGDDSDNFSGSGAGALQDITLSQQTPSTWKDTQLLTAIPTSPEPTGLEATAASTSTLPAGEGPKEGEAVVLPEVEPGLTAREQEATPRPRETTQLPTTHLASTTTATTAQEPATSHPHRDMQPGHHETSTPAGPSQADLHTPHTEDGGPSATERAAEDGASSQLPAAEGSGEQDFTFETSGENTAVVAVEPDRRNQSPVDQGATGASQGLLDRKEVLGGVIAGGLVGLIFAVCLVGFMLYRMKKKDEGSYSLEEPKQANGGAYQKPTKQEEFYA
# T2: Soluble CD138 antigen from U-266 cell culture supernatant, biotinylated (human, UniProt P18827 23-245, limits assumed, biotinylated on primary amino groups with EZ-Link Sulfo-NHS-LC-Biotin)
# T2 construct: Captured on a streptavidin SENSOR CHIP SA for the BIACORE assay; Soluble (shed) form; also called bCD138; biotinylated CD138
# T2 sequence (looked up): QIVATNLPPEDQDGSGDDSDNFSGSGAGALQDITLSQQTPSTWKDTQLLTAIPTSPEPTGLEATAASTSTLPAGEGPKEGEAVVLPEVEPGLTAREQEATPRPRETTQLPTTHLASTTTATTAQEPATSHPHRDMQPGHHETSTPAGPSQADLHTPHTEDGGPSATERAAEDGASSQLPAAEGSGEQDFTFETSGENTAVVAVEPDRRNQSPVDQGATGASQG
# B1: nBT062-SPDB-DM4 (antibody, human IgG4, kappa, V domains shown)
# VH: QVQLQQSGSELMMPGASVKISCKATGYTFSNYWIEWVKQRPGHGLEWIGEILPGTGRTIYNEKFKGKATFTADISSNTVQMQLSSLTSEDSAVYYCARRDYYGNFYYAMDYWGQGTSVTVSS
# VL: DIQMTQSTSSLSASLGDRVTISCSASQGINNYLNWYQQKPDGTVELLIYYTSTLQSGVPSRFSGSGSGTDYSLTISNLEPEDIGTYYCQQYSKLPRTFGGGTKLEIKR
# modifications: maytansinoid DM4 linked by disulfide bond through SPDB linker; residues carrying the drug not stated
# B2: B-B4-SPP-DM1 (antibody, V domains shown)
# VH: B1 VH
# VL: DIQMTQSTSSLSASLGDRVTISCSASQGINNYLNWYQQKPDGTVELLIYYTSTLQSGVPSRFSGSGSGTDYSLTISNLEPEDIGTYYCQQYSKLPRTFGGGTKLEIK
# modifications: maytansinoid DM1 linked through SPP linker; residues carrying the drug not stated
# notes: Variable domains as for B-B4 (see its note)
# B3: nBT062 (antibody, human IgG4, kappa, V domains shown)
# VH: B1 VH
# VL: B1 VL
# notes: also called cB-B4; chimeric B-B4
# B4: nBT062-SPP-DM1 (antibody, human IgG4, kappa, V domains shown)
# VH: B1 VH
# VL: B1 VL
# modifications: maytansinoid DM1 linked through SPP linker; residues carrying the drug not stated
# notes: an average of 3.5 DM1 per antibody is stated for nBT062-DM1 conjugates
# B5: nBT062-SMCC-DM1 (antibody, human IgG4, kappa, V domains shown)
# VH: B1 VH
# VL: B1 VL
# modifications: maytansinoid DM1 linked through non-cleavable SMCC linker; residues carrying the drug not stated
# What was measured:
# [1] = target: T1, CD138 on the cell surface; experiment: cell-based or functional assay
# [2] = target: T2, Soluble CD138 antigen from U-266 cell …; experiment: BIACORE C, biotinylated soluble CD138 on SA chip, conjugate as analyte; mean of three experiments
# [3] = target: T2, Soluble CD138 antigen from U-266 cell …; experiment: BIACORE C, biotinylated soluble CD138 on SA chip, conjugate as analyte; single experiment
# [4] = target: T1, CD138 on the cell surface; experiment: FACS on CD138+ OPM-2 cells, fluorescence-labelled secondary antibody, mean fluorescence against concentration
# Source text: The cells were washed and CD138-bound antibody or conjugates were detected using a fluorescence-labeled secondary antibody in FACS analysis. The mean fluorescence measured in these experiments was plotted against the antibody concentration.
Binder,EC50 (read off the curve) [4] [nM],also measured
B1,–,"Sensitivity IC50 (nM), cell line NCI-H929 (MM) [1]: 0.38 nM"
B2,–,Kd [2]: 2.6 nM; Kd [3]: 2.6 nM and 2.7 nM
B3,~1,–
B4,~1,–
B5,~1,–
